Reference: patent US20250073311A1, “DOSAGE REGIME” (ZEALAND PHARMA A/S, priority 2021, published 2025)
Numbered stars: 1 amine (or outer) side, 2 acyl side, 3 side chain; on linkers, the order of the positions; unused ones are H or OH. Square brackets hold non-standard residues; d marks the D form. Side chains are listed from the residue outwards. * marks the point of attachment. C20 diacid = O=C(O)CCCCCCCCCCCCCCCCCCC(=O)*; C18 diacid = O=C(O)CCCCCCCCCCCCCCCCC(=O)*; γGlu = O=C(O)[C@H](CCC(=O)[*:2])N[*:1]; AEEA = NCCOCCOCC(=O)O; Aib = CC(C)(N)C(=O)O

T1: human GLP-2 receptor (hGLP2-R) (human, UniProt O95838)
T1 sequence: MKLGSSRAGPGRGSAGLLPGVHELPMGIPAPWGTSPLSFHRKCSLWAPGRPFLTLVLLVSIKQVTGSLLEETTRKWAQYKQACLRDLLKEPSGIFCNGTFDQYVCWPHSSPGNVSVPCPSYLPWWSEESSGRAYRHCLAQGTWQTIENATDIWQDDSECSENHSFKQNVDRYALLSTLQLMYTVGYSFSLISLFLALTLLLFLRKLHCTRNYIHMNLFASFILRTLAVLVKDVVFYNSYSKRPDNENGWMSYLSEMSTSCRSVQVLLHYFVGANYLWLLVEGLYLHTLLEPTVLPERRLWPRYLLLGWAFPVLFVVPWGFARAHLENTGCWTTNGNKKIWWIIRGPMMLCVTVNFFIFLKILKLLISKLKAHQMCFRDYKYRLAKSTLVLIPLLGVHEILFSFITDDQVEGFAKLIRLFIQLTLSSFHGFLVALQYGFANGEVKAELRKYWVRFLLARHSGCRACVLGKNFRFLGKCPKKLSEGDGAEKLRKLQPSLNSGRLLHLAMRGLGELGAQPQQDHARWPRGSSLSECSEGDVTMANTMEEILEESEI


How the values were obtained:
[1] = molecular target: human glucagon-like peptide 1 receptor (GLP-1R) (human, UniProt P43220); assay: cell-based or functional assay
[2] = molecular target: T1, human GLP-2 receptor (hGLP2-R); assay: cell-based or functional assay

Row | Binder | EC50 GLP-1 (nM), cAMP AlphaScreen [1] [nM] | EC50 GLP-2 (nM), cAMP AlphaScreen [2] [nM]
1 | H-H[Aib]EGTFTSELATILDEQAAK([AEEA-KEK-γGlu-C20 diacid])DFIAWLIEHKITD-OH [Compound 65] | 0.13 | 0.35
2 | H-H[Aib]EGSFTSELATILDGK([γGlu-C18 diacid])AARDFIAWLIEHKITD-OH (SMILES CC[C@H](C)[C@H](NC(=O)[C@H](Cc1ccccc1)NC(=O)[C@H](CC(=O)O)NC(=O)[C@H](CCCNC(=N)N)NC(=O)[C@H](C)NC(=O)[C@H](C)NC(=O)[C@H](CCCCNC(=O)CC[C@H](NC(=O)CCCCCCCCCCCCCCCCC(=O)O)C(=O)O)NC(=O)CNC(=O)[C@H](CC(=O)O)NC(=O)[C@H](CC(C)C)NC(=O)[C@@H](NC(=O)[C@@H](NC(=O)[C@H](C)NC(=O)[C@H](CC(C)C)NC(=O)[C@H](CCC(=O)O)NC(=O)[C@H](CO)NC(=O)[C@@H](NC(=O)[C@H](Cc1ccccc1)NC(=O)[C@H](CO)NC(=O)CNC(=O)[C@H](CCC(=O)O)NC(=O)C(C)(C)NC(=O)[C@@H](N)Cc1c[nH]cn1)[C@@H](C)O)[C@@H](C)O)[C@@H](C)CC)C(=O)N[C@@H](C)C(=O)N[C@@H](Cc1c[nH]c2ccccc12)C(=O)N[C@@H](CC(C)C)C(=O)N[C@H](C(=O)N[C@@H](CCC(=O)O)C(=O)N[C@@H](Cc1c[nH]cn1)C(=O)N[C@@H](CCCCN)C(=O)N[C@H](C(=O)N[C@H](C(=O)N[C@@H](CC(=O)O)C(=O)O)[C@@H](C)O)[C@@H](C)CC)[C@@H](C)CC) [Compound 8] | 0.22 | 0.039
3 | H-H[Aib]EGSFTSELATILDEQAAK([AEEA-KEK-γGlu-C20 diacid])DFIAWLIEHKITD-OH [Compound 64] | 0.49 | 0.2
4 | H-H[Aib]EGTFTSELATILDK([γGlu-C18 diacid])EAARDFIAWLIEHKITD-OH (SMILES CC[C@H](C)[C@H](NC(=O)[C@H](Cc1ccccc1)NC(=O)[C@H](CC(=O)O)NC(=O)[C@H](CCCNC(=N)N)NC(=O)[C@H](C)NC(=O)[C@H](C)NC(=O)[C@H](CCC(=O)O)NC(=O)[C@H](CCCCNC(=O)CC[C@H](NC(=O)CCCCCCCCCCCCCCCCC(=O)O)C(=O)O)NC(=O)[C@H](CC(=O)O)NC(=O)[C@H](CC(C)C)NC(=O)[C@@H](NC(=O)[C@@H](NC(=O)[C@H](C)NC(=O)[C@H](CC(C)C)NC(=O)[C@H](CCC(=O)O)NC(=O)[C@H](CO)NC(=O)[C@@H](NC(=O)[C@H](Cc1ccccc1)NC(=O)[C@@H](NC(=O)CNC(=O)[C@H](CCC(=O)O)NC(=O)C(C)(C)NC(=O)[C@@H](N)Cc1c[nH]cn1)[C@@H](C)O)[C@@H](C)O)[C@@H](C)O)[C@@H](C)CC)C(=O)N[C@@H](C)C(=O)N[C@@H](Cc1c[nH]c2ccccc12)C(=O)N[C@@H](CC(C)C)C(=O)N[C@H](C(=O)N[C@@H](CCC(=O)O)C(=O)N[C@@H](Cc1c[nH]cn1)C(=O)N[C@@H](CCCCN)C(=O)N[C@H](C(=O)N[C@H](C(=O)N[C@@H](CC(=O)O)C(=O)O)[C@@H](C)O)[C@@H](C)CC)[C@@H](C)CC) [Compound 3] | 0.042 | 0.33
5 | H-H[Aib]EGTFTSELATILDK([γGlu-C18 diacid])KAARDFIAWLIEHKITD-OH [Compound 6] | 0.058 | 0.12
6 | H-H[Aib]EGTFTSELATILDGK([γGlu-C18 diacid])AARDFIAWLIEHKITD-OH (SMILES CC[C@H](C)[C@H](NC(=O)[C@H](Cc1ccccc1)NC(=O)[C@H](CC(=O)O)NC(=O)[C@H](CCCNC(=N)N)NC(=O)[C@H](C)NC(=O)[C@H](C)NC(=O)[C@H](CCCCNC(=O)CC[C@H](NC(=O)CCCCCCCCCCCCCCCCC(=O)O)C(=O)O)NC(=O)CNC(=O)[C@H](CC(=O)O)NC(=O)[C@H](CC(C)C)NC(=O)[C@@H](NC(=O)[C@@H](NC(=O)[C@H](C)NC(=O)[C@H](CC(C)C)NC(=O)[C@H](CCC(=O)O)NC(=O)[C@H](CO)NC(=O)[C@@H](NC(=O)[C@H](Cc1ccccc1)NC(=O)[C@@H](NC(=O)CNC(=O)[C@H](CCC(=O)O)NC(=O)C(C)(C)NC(=O)[C@@H](N)Cc1c[nH]cn1)[C@@H](C)O)[C@@H](C)O)[C@@H](C)O)[C@@H](C)CC)C(=O)N[C@@H](C)C(=O)N[C@@H](Cc1c[nH]c2ccccc12)C(=O)N[C@@H](CC(C)C)C(=O)N[C@H](C(=O)N[C@@H](CCC(=O)O)C(=O)N[C@@H](Cc1c[nH]cn1)C(=O)N[C@@H](CCCCN)C(=O)N[C@H](C(=O)N[C@H](C(=O)N[C@@H](CC(=O)O)C(=O)O)[C@@H](C)O)[C@@H](C)CC)[C@@H](C)CC) [Compound 9] | 0.056 | 0.056
7 | H-H[Aib]EGTFTSELATILDEQAAK([AEEA-AEEA-KEK-γGlu-C20 diacid])DFIAWLIEHKITD-OH [Compound 67] | 0.16 | 0.22
8 | H-H[Aib]EGTFSSELATILDGK([γGlu-C18 diacid])AARDFIAWLIEHKITD-OH (SMILES CC[C@H](C)[C@H](NC(=O)[C@H](Cc1ccccc1)NC(=O)[C@H](CC(=O)O)NC(=O)[C@H](CCCNC(=N)N)NC(=O)[C@H](C)NC(=O)[C@H](C)NC(=O)[C@H](CCCCNC(=O)CC[C@H](NC(=O)CCCCCCCCCCCCCCCCC(=O)O)C(=O)O)NC(=O)CNC(=O)[C@H](CC(=O)O)NC(=O)[C@H](CC(C)C)NC(=O)[C@@H](NC(=O)[C@@H](NC(=O)[C@H](C)NC(=O)[C@H](CC(C)C)NC(=O)[C@H](CCC(=O)O)NC(=O)[C@H](CO)NC(=O)[C@H](CO)NC(=O)[C@H](Cc1ccccc1)NC(=O)[C@@H](NC(=O)CNC(=O)[C@H](CCC(=O)O)NC(=O)C(C)(C)NC(=O)[C@@H](N)Cc1c[nH]cn1)[C@@H](C)O)[C@@H](C)O)[C@@H](C)CC)C(=O)N[C@@H](C)C(=O)N[C@@H](Cc1c[nH]c2ccccc12)C(=O)N[C@@H](CC(C)C)C(=O)N[C@H](C(=O)N[C@@H](CCC(=O)O)C(=O)N[C@@H](Cc1c[nH]cn1)C(=O)N[C@@H](CCCCN)C(=O)N[C@H](C(=O)N[C@H](C(=O)N[C@@H](CC(=O)O)C(=O)O)[C@@H](C)O)[C@@H](C)CC)[C@@H](C)CC) [Compound 7] | 0.92 | 0.019
9 | H-H[Aib]EGSFTSELATILDEQAAK([AEEA-AEEA-KEK-γGlu-C20 diacid])DFIAWLIEHKITD-OH [Compound 66] | 0.65 | 0.18
10 | H-H[Aib]EGSFTSELATILDK([γGlu-C18 diacid])KAARDFIAWLIEHKITD-OH (SMILES CC[C@H](C)[C@H](NC(=O)[C@H](Cc1ccccc1)NC(=O)[C@H](CC(=O)O)NC(=O)[C@H](CCCNC(=N)N)NC(=O)[C@H](C)NC(=O)[C@H](C)NC(=O)[C@H](CCCCN)NC(=O)[C@H](CCCCNC(=O)CC[C@H](NC(=O)CCCCCCCCCCCCCCCCC(=O)O)C(=O)O)NC(=O)[C@H](CC(=O)O)NC(=O)[C@H](CC(C)C)NC(=O)[C@@H](NC(=O)[C@@H](NC(=O)[C@H](C)NC(=O)[C@H](CC(C)C)NC(=O)[C@H](CCC(=O)O)NC(=O)[C@H](CO)NC(=O)[C@@H](NC(=O)[C@H](Cc1ccccc1)NC(=O)[C@H](CO)NC(=O)CNC(=O)[C@H](CCC(=O)O)NC(=O)C(C)(C)NC(=O)[C@@H](N)Cc1c[nH]cn1)[C@@H](C)O)[C@@H](C)O)[C@@H](C)CC)C(=O)N[C@@H](C)C(=O)N[C@@H](Cc1c[nH]c2ccccc12)C(=O)N[C@@H](CC(C)C)C(=O)N[C@H](C(=O)N[C@@H](CCC(=O)O)C(=O)N[C@@H](Cc1c[nH]cn1)C(=O)N[C@@H](CCCCN)C(=O)N[C@H](C(=O)N[C@H](C(=O)N[C@@H](CC(=O)O)C(=O)O)[C@@H](C)O)[C@@H](C)CC)[C@@H](C)CC) [Compound 5] | 0.17 | 0.063
11 | H-H[Aib]EGSFTSELATILDAKAAK([AEEA-KEK-γGlu-C20 diacid])DFIAWLIEHKITD-OH [Compound 68] | 0.084 | 0.1
12 | H-H[Aib]EGTFSSELATILDK([γGlu-C18 diacid])KAARDFIAWLIEHKITD-OH [Compound 4] | 0.66 | 0.087
13 | H-H[Aib]EGSFTSELATILDAK([AEEA-AEEA-KEK-γGlu-C20 diacid])AARDFIAWLIEHKITD-OH [Compound 63] | 0.31 | 0.17
